According to paper PMC7694065:

Molecular target: recombinant Hbl B (hemolysin BL component B) with N-terminal strep tag (Bacillus cereus) (UniProt P80172)

## recombinant Hbl B (hemolysin BL component B) with N-terminal strep tag (from UniProt P80172 32-375) (natural protein)
  binding of rHbl B to Vero cells (flow cytometry, mAb 1G8-Alexa 488) after 10 min heat treatment over a temperature gradient; minimum 7% FL1-positive cells at 60 °C, increase from 70 °C upwards (% FL1-positive cells): 93
